# Reference: the Human Domainome abundance scans (Beltran et al. 2025)
# ± gives the uncertainty stated by the source.
# B1: RNA-binding E3 ubiquitin-protein ligase MEX3C, residues 325 to 391; numbered along this chain, Q5U5Q3 (parent)
# chain: GQTTVQVRVPYRVVGLVVGPKGATIKRIQQQTHTYIVTPSRDKEPVFEVTGMPENVDRAREEIEMHI
# Variants of: B1
# Assay: abundance fitness (aPCA) (normalised: wild type 0, dead -1); higher = more abundant; growth selection in yeast, the domain comes from the species named
# Settings: Homo sapiens
row,Variant,abundance fitness
1,GQTTVQVRVPYRVVGLVMGPKGATIKRIQQQTHTYIVTPSRDKEPVFEVTGMPENVDRAREEIEMHI [V18M],-0.119 ± 0.093
2,GQTTVQVRVPYRVVGLVPGPKGATIKRIQQQTHTYIVTPSRDKEPVFEVTGMPENVDRAREEIEMHI [V18P],-0.771 ± 0.13
3,GQTTVQVRVPYRVVGLVIGPKGATIKRIQQQTHTYIVTPSRDKEPVFEVTGMPENVDRAREEIEMHI [V18I],0.019 ± 0.16
4,GQTTVQVRVPYRVVGLVTGPKGATIKRIQQQTHTYIVTPSRDKEPVFEVTGMPENVDRAREEIEMHI [V18T],-0.26 ± 0.067
5,GQTTVQVRVPYRVVGLVCGPKGATIKRIQQQTHTYIVTPSRDKEPVFEVTGMPENVDRAREEIEMHI [V18C],-0.258 ± 0.083
6,GQTTVQVRVPYRVVGLVSGPKGATIKRIQQQTHTYIVTPSRDKEPVFEVTGMPENVDRAREEIEMHI [V18S],-0.523 ± 0.074
7,GQTTVQVRVPYRVVGLVQGPKGATIKRIQQQTHTYIVTPSRDKEPVFEVTGMPENVDRAREEIEMHI [V18Q],-0.63 ± 0.14
8,GQTTVQVRVPYRVVGLVYGPKGATIKRIQQQTHTYIVTPSRDKEPVFEVTGMPENVDRAREEIEMHI [V18Y],-0.256 ± 0.099
9,GQTTVQVRVPYRVVGLVGGPKGATIKRIQQQTHTYIVTPSRDKEPVFEVTGMPENVDRAREEIEMHI [V18G],-0.794 ± 0.08
10,GQTTVQVRVPYRVVGLVHGPKGATIKRIQQQTHTYIVTPSRDKEPVFEVTGMPENVDRAREEIEMHI [V18H],-0.456 ± 0.15
11,GQTTVQVRVPYRVVGLVVGPKMATIKRIQQQTHTYIVTPSRDKEPVFEVTGMPENVDRAREEIEMHI [G22M],-0.274 ± 0.084
12,GQTTVQVRVPYRVVGLVVGPKHATIKRIQQQTHTYIVTPSRDKEPVFEVTGMPENVDRAREEIEMHI [G22H],-0.769 ± 0.27
13,GQTTVQVRVPYRVVGLVVGPKCATIKRIQQQTHTYIVTPSRDKEPVFEVTGMPENVDRAREEIEMHI [G22C],-0.712 ± 0.2
14,GQTTVQVRVPYRVVGLVVGPKDATIKRIQQQTHTYIVTPSRDKEPVFEVTGMPENVDRAREEIEMHI [G22D],-0.543 ± 0.15
15,GQTTVQVRVPYRVVGLVVGPKPATIKRIQQQTHTYIVTPSRDKEPVFEVTGMPENVDRAREEIEMHI [G22P],-0.836 ± 0.29
16,GQTTVQVRVPYRVVGLVVGPKAATIKRIQQQTHTYIVTPSRDKEPVFEVTGMPENVDRAREEIEMHI [G22A],-0.489 ± 0.072
17,GQTTVQVRVPYRVVGLVVGPKKATIKRIQQQTHTYIVTPSRDKEPVFEVTGMPENVDRAREEIEMHI [G22K],-0.424 ± 0.18
18,GQTTVQVRVPYRVVGLVVGPKQATIKRIQQQTHTYIVTPSRDKEPVFEVTGMPENVDRAREEIEMHI [G22Q],-0.189 ± 0.1
19,GQTTVQVRVPYRVVGLVVGPKLATIKRIQQQTHTYIVTPSRDKEPVFEVTGMPENVDRAREEIEMHI [G22L],-0.587 ± 0.11
20,GQTTVQVRVPYRVVGLVVGPKFATIKRIQQQTHTYIVTPSRDKEPVFEVTGMPENVDRAREEIEMHI [G22F],-0.738 ± 0.33

row,Variant,abundance fitness
1,GQTTVQVRVPYRVVGLVVGPKEATIKRIQQQTHTYIVTPSRDKEPVFEVTGMPENVDRAREEIEMHI [G22E],-0.389 ± 0.097
2,GQTTVQVRVPYRVVGLVVGPKNATIKRIQQQTHTYIVTPSRDKEPVFEVTGMPENVDRAREEIEMHI [G22N],-0.631 ± 0.26
3,GQTTVQVRVPYRVVGLVVEPKGATIKRIQQQTHTYIVTPSRDKEPVFEVTGMPENVDRAREEIEMHI [G19E],-0.897 ± 0.12
4,GQTTVQVRVPYRVVGLVVYPKGATIKRIQQQTHTYIVTPSRDKEPVFEVTGMPENVDRAREEIEMHI [G19Y],-0.159 ± 0.2
5,GQTTVQVRVPYRVVGLVVTPKGATIKRIQQQTHTYIVTPSRDKEPVFEVTGMPENVDRAREEIEMHI [G19T],-0.822 ± 0.13
6,GQTTVQVRVPYRVVGLVVKPKGATIKRIQQQTHTYIVTPSRDKEPVFEVTGMPENVDRAREEIEMHI [G19K],-0.785 ± 0.14
7,GQTTVQVRVPYRVVGLVVIPKGATIKRIQQQTHTYIVTPSRDKEPVFEVTGMPENVDRAREEIEMHI [G19I],-1.08 ± 0.49
8,GQTTVQVRVPYRVVGLVVPPKGATIKRIQQQTHTYIVTPSRDKEPVFEVTGMPENVDRAREEIEMHI [G19P],-0.824 ± 0.16
9,GQTTVQVRVPYRVVGLVVRPKGATIKRIQQQTHTYIVTPSRDKEPVFEVTGMPENVDRAREEIEMHI [G19R],-0.739 ± 0.069
10,GQTTVQVRVPYRVVGLVVWPKGATIKRIQQQTHTYIVTPSRDKEPVFEVTGMPENVDRAREEIEMHI [G19W],-0.848 ± 0.13
11,GQTTVQVRVPYRVVGLVVMPKGATIKRIQQQTHTYIVTPSRDKEPVFEVTGMPENVDRAREEIEMHI [G19M],-1.03 ± 0.3
12,GQTTVQVRVPYRVVGLVVVPKGATIKRIQQQTHTYIVTPSRDKEPVFEVTGMPENVDRAREEIEMHI [G19V],-0.795 ± 0.11
13,GQTTVQVRVPYRVVGLVVFPKGATIKRIQQQTHTYIVTPSRDKEPVFEVTGMPENVDRAREEIEMHI [G19F],-0.863 ± 0.27
14,GQTTVQVRVPYRVVGLVVAPKGATIKRIQQQTHTYIVTPSRDKEPVFEVTGMPENVDRAREEIEMHI [G19A],-0.86 ± 0.16
15,GQTTVQVRVPYRVVGLVVQPKGATIKRIQQQTHTYIVTPSRDKEPVFEVTGMPENVDRAREEIEMHI [G19Q],-0.623 ± 0.17
16,GQTTVQVRVPYRVVGLVVLPKGATIKRIQQQTHTYIVTPSRDKEPVFEVTGMPENVDRAREEIEMHI [G19L],-0.951 ± 0.13
17,GQTTVQVRVPYRVVGLVVHPKGATIKRIQQQTHTYIVTPSRDKEPVFEVTGMPENVDRAREEIEMHI [G19H],-0.694 ± 0.24
18,GQTTVQVRVPYRVVGLVVDPKGATIKRIQQQTHTYIVTPSRDKEPVFEVTGMPENVDRAREEIEMHI [G19D],-0.716 ± 0.15
19,GQTTVQVRVPYRVVGLVVCPKGATIKRIQQQTHTYIVTPSRDKEPVFEVTGMPENVDRAREEIEMHI [G19C],-0.844 ± 0.16
20,GQTTVQVRVPYRVVGLVVNPKGATIKRIQQQTHTYIVTPSRDKEPVFEVTGMPENVDRAREEIEMHI [G19N],-0.64 ± 0.31
